± gives the uncertainty stated by the source.
Assay: self-splicing fitness, log relative to wild type (ln ratio); higher = more splicing; Tetrahymena group I intron in knt gene, E. coli kanamycin selection, DiMSum; sequences stand for … in CUCUCU…GGAGGGAAAAGUUAUCAGGCAUGCACCUGGUAGCUAGUCUUUAAACCAAUAGAUUGCAUCGGUUUAAAAGGCAAGACCGUCAAAUUGCGGGAAAGGGGUCAACAGCCGUUCAGUACCAAGUCUCAGGGGAAACUUUGAGAUGGCCUUGCAAAGGGUAUGGUAAUAAGCUGACGGACAUGGUCCUAACCACGCAGCCAAGUCCUAAGUCAACAGAUCUUCUGUUGAUAUGGAUGCAGUUCACAGACUAAAUGUCGGUCGGGGAAGAUGUAUUCUUCUCAUAAGAUAUAGUCGGACCUCUCCUUAAUGGGAGCUAGCGGAUGAAGUGAUGCAACACUGGAGCCGCUGGGAACUAAUUUGUAUGCGAAAGUAUAUUGAUUAGUUUUGGAGUACUCGUGGUCG
Summary of the method: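 Six replicate transformations of E. coli BL21(DE3) with a pET-22b(+) library were grown overnight at 37°C or 30°C. The library randomised all eight P1ex-region intron nucleotides, the intron lying in the knt kanamycin-resistance gene, and plates were LB agar with or without 25 μg/mL kanamycin plus 100 μg/mL carbenicillin, 50 μM IPTG and 0.2% rhamnose. Pooled colonies were amplicon-sequenced on an Illumina HiSeq 2500, and fitness is the DiMSum error-weighted combination of wild-type-normalised replicate fold changes, kanamycin versus none.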

Sequence	self-splicing fitness (ln) (30 °C)	self-splicing fitness (ln) (37 °C)
CAAGAGCAAUAUUACGCAAU	-3.31 ± 0.44	-1.52 ± 0.22
CCGUAGCAAUAUUACGCAAA		-2.24 ± 0.25
AUGUAGCAAUAUUACGAUGG	-3.4 ± 0.25	-2.26 ± 0.26
GAUCAGCAAUAUUACGGCUA	-0.263 ± 0.099	0.0701 ± 0.11
GCCGAGCAAUAUUACGGCUC		-1.49 ± 0.46
GGUCAGCAAUAUUACGCCAG	-3.3 ± 0.47	-3.3 ± 0.4
AUUUAGCAAUAUUACGUGAA	-2.53 ± 0.14	-0.614 ± 0.12
CGUCAGCAAUAUUACGUCUA	-0.831 ± 0.13	-0.968 ± 0.17
UCCCAGCAAUAUUACGGUAG	-2.7 ± 0.12	-1.45 ± 0.11
CUCUAGCAAUAUUACGGAUA	-3.57 ± 0.24	-2.71 ± 0.22
CUCUAGCAAUAUUACGAGGA	-2.32 ± 0.19	-1.59 ± 0.17
GGGUAGCAAUAUUACGAUGC	-0.816 ± 0.14	-0.295 ± 0.19
CUGCAGCAAUAUUACGCCGA		-2.61 ± 0.36
CUCCAGCAAUAUUACGUGCC	-3.68 ± 0.33	-0.249 ± 0.27
UUCCAGCAAUAUUACGUCGU	-4.1 ± 0.19	-1.85 ± 0.12
AAGGAGCAAUAUUACGAUAC	-3.49 ± 0.39	-3.25 ± 0.37
GUACAGCAAUAUUACGUUGC	-3.96 ± 0.13	-3.05 ± 0.14
AUCAAGCAAUAUUACGACCC	-1.34 ± 0.17	-0.0224 ± 0.3
CGUAAGCAAUAUUACGGUUC		-2.59 ± 0.26
CGUGAGCAAUAUUACGGAAC		-1.28 ± 0.44
GCUCAGCAAUAUUACGGCGU	-0.15 ± 0.062	0.324 ± 0.082
CGGAAGCAAUAUUACGGCAG	-0.0767 ± 0.11	0.445 ± 0.13
AGACAGCAAUAUUACGGGUA	-2.49 ± 0.1	-2.1 ± 0.095
ACAAAGCAAUAUUACGCUGC	-3.63 ± 0.25	-1.26 ± 0.21
GAGGAGCAAUAUUACGCCAC		-2.39 ± 0.37
CACCAGCAAUAUUACGACUU	-3.4 ± 0.14	-2.69 ± 0.13

Sequence	self-splicing fitness (ln) (30 °C)	self-splicing fitness (ln) (37 °C)
GGGAAGCAAUAUUACGAGAA	-2.16 ± 0.48	-1.78 ± 0.36
GUGAAGCAAUAUUACGUAAA	-1.41 ± 0.086	-1.51 ± 0.12
GGCGAGCAAUAUUACGUUAA	-2.51 ± 0.19	-1.4 ± 0.2
CAGGAGCAAUAUUACGUCGG	-0.734 ± 0.099	-0.66 ± 0.13
UAAUAGCAAUAUUACGCAUG	-1.4 ± 0.085	0.553 ± 0.13
GGUCAGCAAUAUUACGUGUC	-0.998 ± 0.12	-0.0483 ± 0.13
UGGCAGCAAUAUUACGCGUC	-3.54 ± 0.37	-2.21 ± 0.3
CGUGAGCAAUAUUACGUCCU		-1.64 ± 0.32
ACUUAGCAAUAUUACGCCCU	-0.568 ± 0.16	0.0637 ± 0.28
CCGCAGCAAUAUUACGUAAC	-3.86 ± 0.3	-2.7 ± 0.29
UAACAGCAAUAUUACGGUAG	-1.7 ± 0.07	-0.0293 ± 0.076
CAUAAGCAAUAUUACGACGA	-2.01 ± 0.17	-0.546 ± 0.11
AUCUAGCAAUAUUACGAGUU	-2.66 ± 0.16	-0.737 ± 0.14
GCCUAGCAAUAUUACGCGCC	-2.42 ± 0.34	-1.39 ± 0.31
GCGCAGCAAUAUUACGAGUC	-1.6 ± 0.13	-1.36 ± 0.24
AGGAAGCAAUAUUACGCGUC	-3.99 ± 0.33	-2.24 ± 0.24
AUCAAGCAAUAUUACGAUUA	-1.28 ± 0.11	-0.622 ± 0.13
AAGUAGCAAUAUUACGAAGU	-3.02 ± 0.2	-1.9 ± 0.18
AUCUAGCAAUAUUACGACCA	-0.438 ± 0.12	-0.302 ± 0.14
UCAGAGCAAUAUUACGAAUU		-2.24 ± 0.37
UUUGAGCAAUAUUACGAGGU	-4.2 ± 0.46	-3.66 ± 0.46
CAUAAGCAAUAUUACGCCCA	-2.14 ± 0.21	-1.35 ± 0.29
AUGAAGCAAUAUUACGAAAC	-2.04 ± 0.2	-0.541 ± 0.3
AUAGAGCAAUAUUACGUAAG	-1.94 ± 0.22	-1.34 ± 0.25
GGAAAGCAAUAUUACGCUUU		-2.56 ± 0.3
UGGAAGCAAUAUUACGCUAU	-2.52 ± 0.18	-2.72 ± 0.29

Sequence	self-splicing fitness (ln) (30 °C)	self-splicing fitness (ln) (37 °C)
AGCUAGCAAUAUUACGAACC	-0.602 ± 0.14	-0.082 ± 0.14
UUGGAGCAAUAUUACGCUGG	-1.62 ± 0.34	-0.962 ± 0.32
CAAGAGCAAUAUUACGCGUC	-2.16 ± 0.17	-2.23 ± 0.23
CCUCAGCAAUAUUACGUCGA	-3.67 ± 0.27	-2.28 ± 0.2
AAUGAGCAAUAUUACGGGGG	-4.09 ± 0.42	-1.32 ± 0.25
UAAGAGCAAUAUUACGCGGA	-2.95 ± 0.28	-2.35 ± 0.33
UGGAAGCAAUAUUACGUCAA	-1.53 ± 0.12	-0.758 ± 0.13
UCACAGCAAUAUUACGUGAC	-3.26 ± 0.12	-2.5 ± 0.22
AAGUAGCAAUAUUACGGGUC	-3.44 ± 0.16	-2.84 ± 0.19
CUGUAGCAAUAUUACGUAUA	-3.03 ± 0.4	-2.67 ± 0.28
AUGCAGCAAUAUUACGCUGA	-2.82 ± 0.19	-1.35 ± 0.13
AUUCAGCAAUAUUACGCCCG	-1.85 ± 0.34	
CGGAAGCAAUAUUACGACUC	-0.372 ± 0.081	-1.1 ± 0.08
GAGCAGCAAUAUUACGUUAA	-3.53 ± 0.27	-0.69 ± 0.13
ACCAAGCAAUAUUACGGCAU	-0.931 ± 0.049	-0.0435 ± 0.066
CAAUAGCAAUAUUACGUGGU	-3.82 ± 0.17	-2.53 ± 0.18
CGGGAGCAAUAUUACGUACA	-3.72 ± 0.35	
AGAGAGCAAUAUUACGAUCC	-2.71 ± 0.24	-1.5 ± 0.32
UCGUAGCAAUAUUACGGCCG	-1.51 ± 0.36	-0.102 ± 0.27
UUGGAGCAAUAUUACGUGAC	-2.9 ± 0.41	-0.119 ± 0.45
ACGGAGCAAUAUUACGAUUA	-2.6 ± 0.25	-2.23 ± 0.29
GAGAAGCAAUAUUACGCCUA	-0.659 ± 0.15	-1.03 ± 0.14
CCUGAGCAAUAUUACGUACG	-2.08 ± 0.2	-1.24 ± 0.22
CGUAAGCAAUAUUACGUUAA	-3.03 ± 0.23	-2.47 ± 0.29
GCACAGCAAUAUUACGUCUC	-0.14 ± 0.056	0.38 ± 0.059
UUAAAGCAAUAUUACGGAAU	-3.11 ± 0.17	-1.73 ± 0.17

Reference: the supplement of paper PMC7877785
